Test results published in patent publication US20230212319A1, “NOVEL ANTIGEN BINDING DOMAINS AND SYNTHETIC ANTIGEN RECEPTORS INCORPORATING THE SAME” (University of Southern California, priority 2020, published 2023).

Key:
Format in all cases: cell-based
[1] = test system: RAJI cells; test: JNG assay, co-culture with RAJI cells; details: JNG cells expressing construct, co-culture with Raji
In short: (§1)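 Read-out is NFAT-driven GFP measured by flow cytometry after ~4–18 h co-culture of SAR-expressing JNG cells with target cells (E:T about 1:2). SARs were introduced by lentiviral spinfection and selected with puromycin or blasticidin when possible; scores (+/- to 5+ ≈ 5–50% GFP+) are relative to parental JNG cells.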

[2] = test system: RAJI-CD19-KO cells; test: JNG assay, co-culture with RAJI-CD19-KO cells; details: co-culture with Raji-CD19-KO
In short: as §1

[3] = test system: Nalm6 cells; test: JNG assay, co-culture with Nalm6 cells; details: co-culture with Nalm6
In short: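 GFP expression induced through the NFAT pathway was monitored by FACS once SAR-bearing Jurkat reporters had been cultured with target cells at an approximate 1:2 ratio for 4 to 18 hours; parental reporter cells served as the baseline.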

[4] = test system: RS;411; test: JNG assay, co-culture with RS;411 cells; details: co-culture with RS411
In short: as §1

[5] = test system: L363 cells; test: JNG assay, co-culture with L363 cells; details: co-culture with L363
In short: as §1

Molecule | NFAT-GFP ASSAY: Raji [1] | NFAT-GFP ASSAY: Raji-CD19-KO [2] | NFAT-GFP ASSAY: Nalm6 [3] | NFAT-GFP ASSAY: RS411 [4] | NFAT-GFP ASSAY: L363 [5]
22142 (protein) MALPVTALLLPLALLLHAARPQVQLVESGGGLVQPGGSLRLSCAASGFTFTNHAMSWVRQAPGKGLELVSSISGNGRTTYYADSVKGRFTISRDISKNTLDLQMNSLRAEDTAVYYCAKDGGETLVDSRGQGTLVTVSSLEGGGGSGGGGSIEGGGGSGGGGSKVQLLESGGGLVQPGGSLRLSCAASGFIFSSYAMSWVRQAPGKGQEWVSGVSGTGVNTYYADSVKGRFTISRDNSKNTLYLQMNSLRAEDTAVYYCASGKGWDSGSWYEDYRGQGTLVTVSSGTGGGGSGGGGSGGGGSEFDIQMTQSPSSLSASVGDRVTITCKASDHINNWLAWYQQKPGQAPKLLIYGATTLETGVPSRFSGSGSGTDYTLTISSLQPEDFATYYCQQSWNTPWTFGQGTKLEIKRLEIQNPDPAVYQLRDSKSSDKSVCLFTDFDSQTNVSQSKDSDVYITDKCVLDMRSMDFKSNSAVAWSNKSDFACANAFNNSIIPEDTFFPSSDVPCDVKLVEKSFETDTNLNFQNLSVIGFRILLLKVAGFNLLMTLRLWSSRAKRSGSGVKQTLNFDLLKLAGDVESNPGPTSATMDWIWRILFLVGAATGAHSGPQVQLQESGGGLAQAGGSLRLSCAASGRTFSMGWFRQAPGKEREFVAAITYSGGSPYYASSVRGRFTISRDNAKNTVYLQMNSLKPEDTAVYYCAANPTYGSDWNAENWGQGTQVTVSSGSGGGGSGGGGSGGGGSFEQVQLQQPGAELVKPGASVKMSCKASGYAFSSYWINWMKQKPGQGLEWIGQIYPGDGDTNYNGKFKGRATLTADTSSSTAYMQLSSLTSEDSAVYFCARSITTVVGCAMDYWGQGTSVTVSSTREDLKNVFPPEVAVFEPSKAEIAHTQKATLVCLATGFYPDHVELSWWVNGKEVHSGVCTDPQPLKEQPALNDSRYCLSSRLRVSATFWQNPRNHFRCQVQFYGLSENDEWTQDRAKPVTQIVSAEAWGRADCGITSASYHQGVLSATILYEILLGKATLYAVLVSALVLMAMVKRKDSRGRAKRSGSGATNFSLLKQAGDVEENPGPSRGHMTEYKPTVRLATRDDVPRAVRTLAAAFADYPATRHTVDPDRHIERVTELQELFLTRVGLDIGKVWVADDGAAVAVWTTPESVEAGAVFAEIGPRMAELSGSRLAAQQQMEGLLAPHRPKEPAWFLATVGVSPDHQGKGLGSAVVLPGVEAAERAGVPAFLETSAPRNLPFYERLGFTVTADVEVPEGPRTWCMTRKPGA | + (refer to approximately 5%, 10%, 20%, 30%, 40% and 50% GFP positive cells) | + (refer to approximately 5%, 10%, 20%, 30%, 40% and 50% GFP positive cells) | + (refer to approximately 5%, 10%, 20%, 30%, 40% and 50% GFP positive cells) | +/- (refer to approximately 5%, 10%, 20%, 30%, 40% and 50% GFP positive cells) | 
22109 (protein) MALPVTALLLPLALLLHAARPMLPAPKNLVVSRITEDSARLSWTAPDAAFDSFPIRYIETLIWGEAIWLDVPGSERSYDLTGLKPGTEYAVVITGVKGGRFSSPLVASFTTGTGGGGSGGGGSGGGGSEFDIQMTQSPSSLSASVGDRVTITCKASDHINNWLAWYQQKPGQAPKLLIYGATTLETGVPSRFSGSGSGTDYTLTISSLQPEDFATYYCQQSWNTPWTFGQGTKLEIKRLEDLKNVFPPEVAVFEPSEAEISHTQKATLVCLATGFYPDHVELSWWVNGKEVHSGVCTDPQPLKEQPALNDSRYCLSSRLRVSATFWQNPRNHFRCQVQFYGLSENDEWTQDRAKPVTQIVSAEAWGRADCGFTSESYQQGVLSATILYEILLGKATLYAVLVSALVLMAMVKRKDSRGRAKRSGSGATNFSLLKQAGDVEENPGPTSMDWIWRILFLVGAATGAHSFEQVQLQQPGAELVKPGASVKMSCKASGYAFSSYWINWMKQKPGQGLEWIGQIYPGDGDTNYNGKFKGRATLTADTSSSTAYMQLSSLTSEDSAVYFCARSITTVVGCAMDYWGQGTSVTVSSTRIQNPDPAVYQLRDSKSSDKSVCLFTDFDSQTNVSQSKDSDVYITDKCVLDMRSMDFKSNSAVAWSNKSDFACANAFNNSIIPEDTFFPSPESSCDVKLVEKSFETDTNLNFQNLSVIGFRILLLKVAGFNLLMTLRLWSSRAKRSGSGVKQTLNFDLLKLAGDVESNPGPSRGHMTEYKPTVRLATRDDVPRAVRTLAAAFADYPATRHTVDPDRHIERVTELQELFLTRVGLDIGKVWVADDGAAVAVWTTPESVEAGAVFAEIGPRMAELSGSRLAAQQQMEGLLAPHRPKEPAWFLATVGVSPDHQGKGLGSAVVLPGVEAAERAGVPAFLETSAPRNLPFYERLGFTVTADVEVPEGPRTWCMTRKPGA | 2+ (refer to approximately 5%, 10%, 20%, 30%, 40% and 50% GFP positive cells) | +/- (refer to approximately 5%, 10%, 20%, 30%, 40% and 50% GFP positive cells) | 2+ (refer to approximately 5%, 10%, 20%, 30%, 40% and 50% GFP positive cells) | 4+ (refer to approximately 5%, 10%, 20%, 30%, 40% and 50% GFP positive cells) | +/- (refer to approximately 5%, 10%, 20%, 30%, 40% and 50% GFP positive cells)
22127 (protein) MALPVTALLLPLALLLHAARPMLPAPKNLVVSRITEDSARLSWTAPDAAFDSFPIRYIETLIWGEAIWLDVPGSERSYDLTGLKPGTEYAVVITGVKGGRFSSPLVASFTTGTGGGGSGGGGSGGGGSEFDIQMTQSPSSLSASVGDRVTITCKASDHINNWLAWYQQKPGQAPKLLIYGATTLETGVPSRFSGSGSGTDYTLTISSLQPEDFATYYCQQSWNTPWTFGQGTKLEIKRLEIQNPDPAVYQLRDSKSSDKSVCLFTDFDSQTNVSQSKDSDVYITDKCVLDMRSMDFKSNSAVAWSNKSDFACANAFNNSIIPEDTFFPSSDVPCDVKLVEKSFETDTNLNFQNLSVIGFRILLLKVAGFNLLMTLRLWSSRAKRSGSGVKQTLNFDLLKLAGDVESNPGPTSATMDWIWRILFLVGAATGAHSGPQVQLQESGGGLAQAGGSLRLSCAASGRTFSMGWFRQAPGKEREFVAAITYSGGSPYYASSVRGRFTISRDNAKNTVYLQMNSLKPEDTAVYYCAANPTYGSDWNAENWGQGTQVTVSSGSGGGGSGGGGSGGGGSFEQVQLQQPGAELVKPGASVKMSCKASGYAFSSYWINWMKQKPGQGLEWIGQIYPGDGDTNYNGKFKGRATLTADTSSSTAYMQLSSLTSEDSAVYFCARSITTVVGCAMDYWGQGTSVTVSSTREDLKNVFPPEVAVFEPSKAEIAHTQKATLVCLATGFYPDHVELSWWVNGKEVHSGVCTDPQPLKEQPALNDSRYCLSSRLRVSATFWQNPRNHFRCQVQFYGLSENDEWTQDRAKPVTQIVSAEAWGRADCGITSASYHQGVLSATILYEILLGKATLYAVLVSALVLMAMVKRKDSRGRAKRSGSGATNFSLLKQAGDVEENPGPSRGHMTEYKPTVRLATRDDVPRAVRTLAAAFADYPATRHTVDPDRHIERVTELQELFLTRVGLDIGKVWVADDGAAVAVWTTPESVEAGAVFAEIGPRMAELSGSRLAAQQQMEGLLAPHRPKEPAWFLATVGVSPDHQGKGLGSAVVLPGVEAAERAGVPAFLETSAPRNLPFYERLGFTVTADVEVPEGPRTWCMTRKPGA | Raji (+), Raji-CD19-KO (+), Nalm6 (+), L363 (+), RS411 (+) (refer to approximately 5%, 10%, 20%, 30%, 40% and 50% GFP positive cells) | Raji (+), Raji-CD19-KO (+), Nalm6 (+), L363 (+), RS411 (+) (refer to approximately 5%, 10%, 20%, 30%, 40% and 50% GFP positive cells) | Raji (+), Raji-CD19-KO (+), Nalm6 (+), L363 (+), RS411 (+) (refer to approximately 5%, 10%, 20%, 30%, 40% and 50% GFP positive cells) | Raji (+), Raji-CD19-KO (+), Nalm6 (+), L363 (+), RS411 (+) (refer to approximately 5%, 10%, 20%, 30%, 40% and 50% GFP positive cells) | Raji (+), Raji-CD19-KO (+), Nalm6 (+), L363 (+), RS411 (+) (refer to approximately 5%, 10%, 20%, 30%, 40% and 50% GFP positive cells)
22111 (protein) MALPVTALLLPLALLLHAARPEVQLLESGGGLVQPGGSLRLSCAASGFTFSSYAMSWVRQAPGKGLEWVSSISGSGDYIYYADSVKGRFTISRDISKNTLYLQMNSLRAEDTAVYYCAKEGTGANSSLADYRGQGTLVTVSSGTGGGGSGGGGSGGGGSEFDIQMTQSPSSLSASVGDRVTITCKASDHINNWLAWYQQKPGQAPKLLIYGATTLETGVPSRFSGSGSGTDYTLTISSLQPEDFATYYCQQSWNTPWTFGQGTKLEIKRLEDLKNVFPPEVAVFEPSEAEISHTQKATLVCLATGFYPDHVELSWWVNGKEVHSGVCTDPQPLKEQPALNDSRYCLSSRLRVSATFWQNPRNHFRCQVQFYGLSENDEWTQDRAKPVTQIVSAEAWGRADCGFTSESYQQGVLSATILYEILLGKATLYAVLVSALVLMAMVKRKDSRGRAKRSGSGATNFSLLKQAGDVEENPGPTSMDWIWRILFLVGAATGAHSFEQVQLQQPGAELVKPGASVKMSCKASGYAFSSYWINWMKQKPGQGLEWIGQIYPGDGDTNYNGKFKGRATLTADTSSSTAYMQLSSLTSEDSAVYFCARSITTVVGCAMDYWGQGTSVTVSSTRIQNPDPAVYQLRDSKSSDKSVCLFTDFDSQTNVSQSKDSDVYITDKCVLDMRSMDFKSNSAVAWSNKSDFACANAFNNSIIPEDTFFPSPESSCDVKLVEKSFETDTNLNFQNLSVIGFRILLLKVAGFNLLMTLRLWSSRAKRSGSGVKQTLNFDLLKLAGDVESNPGPSRGHMTEYKPTVRLATRDDVPRAVRTLAAAFADYPATRHTVDPDRHIERVTELQELFLTRVGLDIGKVWVADDGAAVAVWTTPESVEAGAVFAEIGPRMAELSGSRLAAQQQMEGLLAPHRPKEPAWFLATVGVSPDHQGKGLGSAVVLPGVEAAERAGVPAFLETSAPRNLPFYERLGFTVTADVEVPEGPRTWCMTRKPGA | 4+ (refer to approximately 5%, 10%, 20%, 30%, 40% and 50% GFP positive cells) | 3+ (refer to approximately 5%, 10%, 20%, 30%, 40% and 50% GFP positive cells) | 2+ (refer to approximately 5%, 10%, 20%, 30%, 40% and 50% GFP positive cells) | 4+ (refer to approximately 5%, 10%, 20%, 30%, 40% and 50% GFP positive cells) | 3+ (refer to approximately 5%, 10%, 20%, 30%, 40% and 50% GFP positive cells)
